Laboratory results as given in patent US10941182 (Amgen, dated 2021).
Starred links: 1 amine or outer side, 2 acyl side, 3 side chain; linkers in the order of their positions; H or OH if unused. Non-standard residues stand in square brackets, D forms with d. Primed or numbered codes have the meaning given here. *: point of attachment. AC4Abu = α-carboxy-4-aminobutyric acid, O=C(C(CCN[*:1])C(=O)[*:3])[*:2]; Oic = O=C(O)[C@@H]1C[C@@H]2CCCC[C@@H]2N1; Phe(4-Cl) = N[C@@H](Cc1ccc(Cl)cc1)C(=O)O; dPhe(4-Cl) = N[C@H](Cc1ccc(Cl)cc1)C(=O)O; γGlu = O=C(O)[C@H](CCC(=O)[*:2])N[*:1]; NMeR = CN[C@@H](CCCNC(=N)N)C(=O)O; Palmitoyl = CCCCCCCCCCCCCCCC(=O)*; αMeF = C[C@](N)(Cc1ccccc1)C(=O)O; β3hF = N[C@H](CC(=O)O)Cc1ccccc1; Cha = N[C@@H](CC1CCCCC1)C(=O)O; β3hP = O=C(O)C[C@@H]1CCCN1; Ac6c = NC1(C(=O)O)CCCCC1; Nle = CCCC[C@H](N)C(=O)O; Ac5c = NC1(C(=O)O)CCCC1; Pip′ = not defined here; AEEA = NCCOCCOCC(=O)O; Aib = CC(C)(N)C(=O)O; Inp = O=C(O)C1CCNCC1; Nip = nipecotic acid

B1: SEQ ID NO: 609 (peptide)
peptide: Palmitoyl-[γGlu][AEEA][AEEA][dQ]RP[NMeR][Cha]SHKG[Oic][Nle][Pip′][αMeF]-OH
B2: SEQ ID NO: 603 (peptide)
peptide: Palmitoyl-[γGlu][AEEA][AEEA][dQ]RP[NMeR][Cha]SHKG[Oic][Nle][Inp][dPhe(4-Cl)]-OH
SMILES: CCCCCCCCCCCCCCCC(=O)N[C@@H](CCC(=O)NCCOCCOCC(=O)NCCOCCOCC(=O)N[C@H](CCC(N)=O)C(=O)N[C@@H](CCCNC(=N)N)C(=O)N1CCC[C@H]1C(=O)N(C)[C@@H](CCCNC(=N)N)C(=O)N[C@@H](CC1CCCCC1)C(=O)N[C@@H](CO)C(=O)N[C@@H](Cc1c[nH]cn1)C(=O)N[C@@H](CCCCN)C(=O)NCC(=O)N1[C@H](C(=O)N[C@@H](CCCC)C(=O)N2CCC(C(=O)N[C@H](Cc3ccc(Cl)cc3)C(=O)O)CC2)C[C@@H]2CCCC[C@@H]21)C(=O)O
B3: SEQ ID NO: 580 (peptide)
peptide: Palmitoyl-[AC4Abu][AEEA][AEEA][dQ]RP[NMeR][Cha]SHKG[Oic][Aib][Phe(4-Cl)]-OH
SMILES: CCCCCCCCCCCCCCCC(=O)NCCC(C(=O)O)C(=O)NCCOCCOCC(=O)NCCOCCOCC(=O)N[C@H](CCC(N)=O)C(=O)N[C@@H](CCCNC(=N)N)C(=O)N1CCC[C@H]1C(=O)N(C)[C@@H](CCCNC(=N)N)C(=O)N[C@@H](CC1CCCCC1)C(=O)N[C@@H](CO)C(=O)N[C@@H](Cc1c[nH]cn1)C(=O)N[C@@H](CCCCN)C(=O)NCC(=O)N1[C@H](C(=O)NC(C)(C)C(=O)N[C@@H](Cc2ccc(Cl)cc2)C(=O)O)C[C@@H]2CCCC[C@@H]21
B4: SEQ ID NO: 585 (peptide)
peptide: Palmitoyl-[AC4Abu][AEEA][AEEA][dQ]RP[NMeR][Cha]SHKG[Oic][Nle][Ac5c][Phe(4-Cl)]-OH
SMILES: CCCCCCCCCCCCCCCC(=O)NCCC(C(=O)O)C(=O)NCCOCCOCC(=O)NCCOCCOCC(=O)N[C@H](CCC(N)=O)C(=O)N[C@@H](CCCNC(=N)N)C(=O)N1CCC[C@H]1C(=O)N(C)[C@@H](CCCNC(=N)N)C(=O)N[C@@H](CC1CCCCC1)C(=O)N[C@@H](CO)C(=O)N[C@@H](Cc1c[nH]cn1)C(=O)N[C@@H](CCCCN)C(=O)NCC(=O)N1[C@H](C(=O)N[C@@H](CCCC)C(=O)NC2(C(=O)N[C@@H](Cc3ccc(Cl)cc3)C(=O)O)CCCC2)C[C@@H]2CCCC[C@@H]21
B5: SEQ ID NO: 607 (peptide)
peptide: Palmitoyl-[γGlu][AEEA][AEEA][dQ]RP[NMeR][Cha]SHKG[Oic][Nle]P[dAMF]-OH
B6: SEQ ID NO: 578 (peptide)
peptide: Palmitoyl-[AC4Abu][AEEA][AEEA][dQ]RP[NMeR][Cha]SHKG[Oic][Nle][β3hF]-OH
SMILES: CCCCCCCCCCCCCCCC(=O)NCCC(C(=O)O)C(=O)NCCOCCOCC(=O)NCCOCCOCC(=O)N[C@H](CCC(N)=O)C(=O)N[C@@H](CCCNC(=N)N)C(=O)N1CCC[C@H]1C(=O)N(C)[C@@H](CCCNC(=N)N)C(=O)N[C@@H](CC1CCCCC1)C(=O)N[C@@H](CO)C(=O)N[C@@H](Cc1c[nH]cn1)C(=O)N[C@@H](CCCCN)C(=O)NCC(=O)N1[C@H](C(=O)N[C@@H](CCCC)C(=O)N[C@H](CC(=O)O)Cc2ccccc2)C[C@@H]2CCCC[C@@H]21
B7: SEQ ID NO: 601 (peptide)
peptide: Palmitoyl-[γGlu][AEEA][AEEA][dQ]RP[NMeR][Cha]SHKG[Oic][Nle][Pip′][dPhe(4-Cl)]-OH
B8: SEQ ID NO: 600 (peptide)
peptide: Palmitoyl-[γGlu][AEEA][AEEA][dQ]RP[NMeR][Cha]SHKG[Oic][Nle][β3hP][dPhe(4-Cl)]-OH
SMILES: CCCCCCCCCCCCCCCC(=O)N[C@@H](CCC(=O)NCCOCCOCC(=O)NCCOCCOCC(=O)N[C@H](CCC(N)=O)C(=O)N[C@@H](CCCNC(=N)N)C(=O)N1CCC[C@H]1C(=O)N(C)[C@@H](CCCNC(=N)N)C(=O)N[C@@H](CC1CCCCC1)C(=O)N[C@@H](CO)C(=O)N[C@@H](Cc1c[nH]cn1)C(=O)N[C@@H](CCCCN)C(=O)NCC(=O)N1[C@H](C(=O)N[C@@H](CCCC)C(=O)N2CCC[C@H]2CC(=O)N[C@H](Cc2ccc(Cl)cc2)C(=O)O)C[C@@H]2CCCC[C@@H]21)C(=O)O
B9: SEQ ID NO: 584 (peptide)
peptide: Palmitoyl-[AC4Abu][AEEA][AEEA][dQ]RP[NMeR][Cha]SHKG[Oic][Nle][Ac6c][Phe(4-Cl)]-OH
SMILES: CCCCCCCCCCCCCCCC(=O)NCCC(C(=O)O)C(=O)NCCOCCOCC(=O)NCCOCCOCC(=O)N[C@H](CCC(N)=O)C(=O)N[C@@H](CCCNC(=N)N)C(=O)N1CCC[C@H]1C(=O)N(C)[C@@H](CCCNC(=N)N)C(=O)N[C@@H](CC1CCCCC1)C(=O)N[C@@H](CO)C(=O)N[C@@H](Cc1c[nH]cn1)C(=O)N[C@@H](CCCCN)C(=O)NCC(=O)N1[C@H](C(=O)N[C@@H](CCCC)C(=O)NC2(C(=O)N[C@@H](Cc3ccc(Cl)cc3)C(=O)O)CCCCC2)C[C@@H]2CCCC[C@@H]21
B10: SEQ ID NO: 608 (peptide)
peptide: Palmitoyl-[γGlu][AEEA][AEEA][dQ]RP[NMeR][Cha]SHKG[Oic][Nle][Aib][αMeF]-OH
SMILES: CCCCCCCCCCCCCCCC(=O)N[C@@H](CCC(=O)NCCOCCOCC(=O)NCCOCCOCC(=O)N[C@H](CCC(N)=O)C(=O)N[C@@H](CCCNC(=N)N)C(=O)N1CCC[C@H]1C(=O)N(C)[C@@H](CCCNC(=N)N)C(=O)N[C@@H](CC1CCCCC1)C(=O)N[C@@H](CO)C(=O)N[C@@H](Cc1c[nH]cn1)C(=O)N[C@@H](CCCCN)C(=O)NCC(=O)N1[C@H](C(=O)N[C@@H](CCCC)C(=O)NC(C)(C)C(=O)N[C@@](C)(Cc2ccccc2)C(=O)O)C[C@@H]2CCCC[C@@H]21)C(=O)O
B11: SEQ ID NO: 587 (peptide)
peptide: Palmitoyl-[AC4Abu][AEEA][AEEA][dQ]RP[NMeR][Cha]SHKG[Oic][Nle][Inp][Phe(4-Cl)]-OH
SMILES: CCCCCCCCCCCCCCCC(=O)NCCC(C(=O)O)C(=O)NCCOCCOCC(=O)NCCOCCOCC(=O)N[C@H](CCC(N)=O)C(=O)N[C@@H](CCCNC(=N)N)C(=O)N1CCC[C@H]1C(=O)N(C)[C@@H](CCCNC(=N)N)C(=O)N[C@@H](CC1CCCCC1)C(=O)N[C@@H](CO)C(=O)N[C@@H](Cc1c[nH]cn1)C(=O)N[C@@H](CCCCN)C(=O)NCC(=O)N1[C@H](C(=O)N[C@@H](CCCC)C(=O)N2CCC(C(=O)N[C@@H](Cc3ccc(Cl)cc3)C(=O)O)CC2)C[C@@H]2CCCC[C@@H]21
B12: SEQ ID NO: 586 (peptide)
peptide: Palmitoyl-[AC4Abu][AEEA][AEEA][dQ]RP[NMeR][Cha]SHKG[Oic][Nle][Nip][Phe(4-Cl)]-OH
B13: SEQ ID NO: 604 (peptide)
peptide: Palmitoyl-[γGlu][AEEA][AEEA][dQ]RP[NMeR][Cha]SHKG[Oic][Nle][Aib][dPhe(4-Cl)]-OH
SMILES: CCCCCCCCCCCCCCCC(=O)N[C@@H](CCC(=O)NCCOCCOCC(=O)NCCOCCOCC(=O)N[C@H](CCC(N)=O)C(=O)N[C@@H](CCCNC(=N)N)C(=O)N1CCC[C@H]1C(=O)N(C)[C@@H](CCCNC(=N)N)C(=O)N[C@@H](CC1CCCCC1)C(=O)N[C@@H](CO)C(=O)N[C@@H](Cc1c[nH]cn1)C(=O)N[C@@H](CCCCN)C(=O)NCC(=O)N1[C@H](C(=O)N[C@@H](CCCC)C(=O)NC(C)(C)C(=O)N[C@H](Cc2ccc(Cl)cc2)C(=O)O)C[C@@H]2CCCC[C@@H]21)C(=O)O
B14: SEQ ID NO: 602 (peptide)
peptide: Palmitoyl-[γGlu][AEEA][AEEA][dQ]RP[NMeR][Cha]SHKG[Oic][Nle][Nip][dPhe(4-Cl)]-OH

Biological target: T1, rat APJ receptor (rat, UniProt Q9JHG3 1-377)
T1 sequence (looked up): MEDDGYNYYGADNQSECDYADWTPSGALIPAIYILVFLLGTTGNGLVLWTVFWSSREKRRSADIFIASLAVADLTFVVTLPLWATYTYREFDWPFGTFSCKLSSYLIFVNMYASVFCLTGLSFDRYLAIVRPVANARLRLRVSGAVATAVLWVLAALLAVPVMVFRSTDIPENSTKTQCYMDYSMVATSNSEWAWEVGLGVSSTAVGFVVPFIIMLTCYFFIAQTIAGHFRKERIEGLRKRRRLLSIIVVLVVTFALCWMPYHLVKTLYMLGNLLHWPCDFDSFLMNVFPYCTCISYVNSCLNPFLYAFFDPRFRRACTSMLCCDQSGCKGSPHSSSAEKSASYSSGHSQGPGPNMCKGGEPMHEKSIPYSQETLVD
Assay: cell-based or functional assay

Row | Binder | EC50 Rat APJ Receptor [nM]
1 | B1 | 2.49
2 | B2 | 32.3
3 | B3 | 0.736
4 | B4 | 22.3
5 | B5 | 0.55
6 | B6 | 4.9
7 | B7 | 3.25
8 | B8 | 4.46
9 | B9 | 52.2
10 | B10 | 0.326
11 | B11 | 3.58
12 | B12 | 23
13 | B13 | 0.512
14 | B14 | 25.6

Biological target: T2, human APJ receptor (human, UniProt P35414 1-380)
T2 sequence (looked up): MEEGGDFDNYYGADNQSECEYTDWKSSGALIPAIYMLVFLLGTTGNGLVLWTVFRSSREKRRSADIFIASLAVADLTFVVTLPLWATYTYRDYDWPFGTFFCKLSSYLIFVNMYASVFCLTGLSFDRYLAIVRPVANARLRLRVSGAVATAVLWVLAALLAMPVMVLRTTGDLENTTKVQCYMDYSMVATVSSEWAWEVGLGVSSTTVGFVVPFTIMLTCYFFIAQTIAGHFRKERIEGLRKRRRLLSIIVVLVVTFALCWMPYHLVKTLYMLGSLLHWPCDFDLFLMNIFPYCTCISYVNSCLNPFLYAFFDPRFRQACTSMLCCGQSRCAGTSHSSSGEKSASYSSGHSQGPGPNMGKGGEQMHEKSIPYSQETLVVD
Assay: cell-based or functional assay

Row | Binder | EC50 Human APJ Receptor [nM]
15 | B1 | 1.25
16 | B2 | 2.96
17 | B3 | 0.462
18 | B4 | 6.73
19 | B5 | 0.0956
20 | B6 | 1.8
21 | B7 | 3.44
22 | B8 | 1.66
23 | B9 | 22.9
24 | B10 | 0.214
25 | B11 | 1.29
26 | B12 | 7.96
27 | B13 | 0.423
28 | B14 | 5.48
